Consider one molecule from patent US20050181476A1 (VLAAMS INTERUNIVERSITAIR INSTITUUT VOOR BIOTECHNOLOGIE VZW, published 2005).

For the assay, the target named is T1, IRAK-4 (UniProt Q9NWZ3 1-460).
T1 construct: also called Gal4AD-IRAK4 (in yeast); not shown: N-terminal Flag or VSV tag (pCRIII) in HEK293T co-immunoprecipitation
T1 sequence (looked up): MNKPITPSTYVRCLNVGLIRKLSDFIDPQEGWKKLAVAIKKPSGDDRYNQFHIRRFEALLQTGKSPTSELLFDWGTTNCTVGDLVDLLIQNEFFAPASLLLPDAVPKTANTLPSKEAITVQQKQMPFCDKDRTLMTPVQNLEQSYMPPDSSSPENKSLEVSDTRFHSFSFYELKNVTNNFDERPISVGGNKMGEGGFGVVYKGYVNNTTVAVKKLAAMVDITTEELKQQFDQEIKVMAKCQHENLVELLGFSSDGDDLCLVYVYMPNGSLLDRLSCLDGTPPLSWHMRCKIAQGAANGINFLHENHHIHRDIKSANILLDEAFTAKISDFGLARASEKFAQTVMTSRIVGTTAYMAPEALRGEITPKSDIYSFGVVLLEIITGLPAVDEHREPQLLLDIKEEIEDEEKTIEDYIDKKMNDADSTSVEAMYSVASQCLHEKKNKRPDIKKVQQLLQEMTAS
The experiment in a line: co-immunoprecipitation from transfected HEK293T cells. The protocol: To test this, IRAK-1KD and IRAK-4 interactions were analyzed in the presence or absence of MyD88 and/or MyD88S. […] However, addition of MyD88 but not MyD88S permitted assembly of a complex containing both IRAKs. MyD88 thereby appears to act like a hinge inducing the proximity of IRAK-1 and IRAK-4.
2×10⁶ HEK293T cells were plated on 10-cm petri dishes and transiently transfected with 1 μg of the indicated expression plasmids. The total amount of DNA was kept at 5 μg per petri dish by adding empty vector. Twenty-four hours post-transfection, cells were washed with PBS, and lysed in 500 μl lysis buffer (50 mM HEPES pH7.6, 250 mM NaCl, 0.1% NP-40, 5 mM EDTA, supplemented with protease and phosphatase inhibitors). Lysates were incubated for 16 hours with 5 μg anti-Flag (Sigma). Immunocomplexes were immobilized on protein A-Trisacryl beads (Pierce Chemical Co., Rockford, USA). The beads were washed twice with lysis buffer and twice with lysis buffer containing 1 M NaCl. Bound proteins were eluted by boiling in Laemli buffer and analyzed by 10% SDS-PAGE and Western blotting. Western blots were blocked with 5% milk and incubated overnight with primary antibodies. Antibodies raised against the C-terminal part of MyD88 were purchased from Immucor (Roedermark, Germany). […]

B1: E-MyD88S (other)
chain: MSAGDPRVGSGSLDSFMFSIPLVALNVGVRRRLSLFLNPRTPVAADWTLLPEEMGFEYLEIRELETRPDPTRSLLDAWQGRSGASVGRLLELLALLDREDILKELKSRIGQTPELFDAFICYCPNDIEFVQEMIRQLEQTDYRLKLCVSDRDVLPGTCVWSIASELIEKRCRRMVVVVSDDYLQSKECDFQTKFALSLSPGVQQKRLIPIKYKAMKKDFPSILRFITICDYTNPCTKSWFWTRLAKALSLP
notes: Expressed in HEK293T cells; also called pCAGGS-E-MyD88S; splice variant of MyD88 lacking the intermediate domain (ID); not shown: N-terminal E-tag
In the case of B1, the binding result was “no binding”.
